± gives the standard deviation of the averaged measurements.
System: ATP
Assay: switch fluorescence ratio, 500 uM ATP over buffer (Cy3 cluster intensity, sum of 5 cycles each) (fold (ratio)); higher = stronger signal-on switching upon ATP binding; sequences stand for … in TCGTCGGCAGCGTCAGATGTGTATAAGAGACAGTTTTTTTTTTTTTTTTTTTTTTTTT…TC
Conditions: aptamer strand: ATP DNA aptamer (quencher-CACCTGGGGGAGTATTGCGGAGGAAGG + anchor), 100 nM annealed; ATP concentration: 500 uM
How it was run: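 For every switch-domain sequence, the fluorescence ratio is the mean of per-cluster values, each being summed target-cycle Cy3 intensity over summed buffer-cycle Cy3 intensity. Clusters outside 100-1000 RFU were excluded. On a modified Illumina MiSeq flow-cell, the Cy3-labelled switching-strand clusters were annealed to 100 nM quencher-labelled ATP aptamer, imaged in selection buffer and then after 15 min with 500 uM ATP at 22 °C. Five such cycles were run, with NaOH stripping and re-annealing between them.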
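Also: ATP exposure 15 min at 22 °C before imaging.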

TTTTAAGAGA and TTTTAAGCTA are within error of each other in switch fluorescence ratio: 1.01 ± 0.017 for the first, 1.12 ± 0.2 for the second.

TTTTAAGGG and TTTTAAGTGA are the same in switch fluorescence ratio: 1.02 ± 0.022 for the first, 1.02 ± 0.05 for the second.

TTTTAATACC and TTTTAATAGT are within error of each other in switch fluorescence ratio: 1 ± 0.023 for the first, 1.01 ± 0.018 for the second.

TTTTAATCCC and TTTTAATCGA are within error of each other in switch fluorescence ratio: 1.07 ± 0.062 for the first, 1.02 ± 0.043 for the second.

TTTTAATGAG and TTTTAATGTT are within error of each other in switch fluorescence ratio: 0.9774 ± 0.00031 for the first, 1 ± 0.046 for the second.

TTTTAATTAG and TTTTAATTCC are within error of each other in switch fluorescence ratio: 1.01 ± 0.018 for the first, 1.02 ± 0.038 for the second.

TTTTAATTGG and TTTTAATTTG are within error of each other in switch fluorescence ratio: 1.01 ± 0.066 for the first, 0.994 ± 0.04 for the second.

TTTTACAAGA and TTTTACACAT are within error of each other in switch fluorescence ratio: 0.996 ± 0.043 for the first, 1.025 ± 0.0057 for the second.

TTTTACAGCA and TTTTACAGTA are within error of each other in switch fluorescence ratio: 1.04 ± 0.03 for the first, 1.07 ± 0.022 for the second.

Going from TTTTACATTT to TTTTACCCAG, the switch fluorescence ratio rises from 1 ± 0.057 to 1.11 ± 0.012.

TTTTACCCGC and TTTTACCCGG are within error of each other in switch fluorescence ratio: 1.11 ± 0.078 for the first, 1.04 ± 0.029 for the second.

Going from TTTTACGACA to TTTTACGCCG, the switch fluorescence ratio falls from 1.15 ± 0.014 to 1.09 ± 0.041.

TTTTACGCTT and TTTTACGGTT are within error of each other in switch fluorescence ratio: 1.04 ± 0.017 for the first, 1.03 ± 0.069 for the second.

Going from TTTTACGTAG to TTTTACTATT, the switch fluorescence ratio falls from 1.09 ± 0.035 to 0.996 ± 0.041.

TTTTAGAAA and TTTTAGAGGT are within error of each other in switch fluorescence ratio: 1.02 ± 0.07 for the first, 0.96 ± 0.033 for the second.

TTTTAGCCAG and TTTTAGGAGA are within error of each other in switch fluorescence ratio: 1.01 ± 0.032 for the first, 1.02 ± 0.026 for the second.

TTTTAGGCCT and TTTTAGGCTC are within error of each other in switch fluorescence ratio: 1.045 ± 0.0027 for the first, 1.03 ± 0.039 for the second.

TTTTAGGGCG and TTTTAGGTAC are within error of each other in switch fluorescence ratio: 0.976 ± 0.048 for the first, 1.021 ± 0.0019 for the second.

TTTTAGGTTC and TTTTAGTACA are within error of each other in switch fluorescence ratio: 1.01 ± 0.018 for the first, 1 ± 0.048 for the second.

TTTTAGTATA and TTTTAGTATG are within error of each other in switch fluorescence ratio: 1.02 ± 0.045 for the first, 1 ± 0.02 for the second.

TTTTAGTGCT and TTTTAGTTGT are within error of each other in switch fluorescence ratio: 1.006 ± 0.0065 for the first, 0.994 ± 0.032 for the second.

Compared with TTTTATACCA, TTTTATACGG is lower in switch fluorescence ratio: 1.04 ± 0.039 for the first, 0.9874 ± 0.0087 for the second.

Compared with TTTTATAGAC, TTTTATCATG is lower in switch fluorescence ratio: 1.04 ± 0.026 for the first, 0.9758 ± 0.0028 for the second.

TTTTATGTTG and TTTTATTATT are within error of each other in switch fluorescence ratio: 1.01 ± 0.04 for the first, 0.967 ± 0.01 for the second.

TTTTATTCGT and TTTTATTGCG are within error of each other in switch fluorescence ratio: 1.01 ± 0.025 for the first, 0.995 ± 0.011 for the second.

TTTTCAAATA and TTTTCAAATT are the same in switch fluorescence ratio: 1.01 ± 0.061 for the first, 1.01 ± 0.028 for the second.

Compared with TTTTCAATGA, TTTTCAGCAA is higher in switch fluorescence ratio: 0.994 ± 0.041 for the first, 2.59 ± 1 for the second.

TTTTCAGGAG and TTTTCATGAG are within error of each other in switch fluorescence ratio: 1.03 ± 0.016 for the first, 1.01 ± 0.012 for the second.

First: TTTTCATTAT
Second: TTTTCATTCA
The switch fluorescence ratio of the first is higher: 1.046 ± 0.0066 for the first, 1.023 ± 0.0072 for the second.

TTTTCATTTT and TTTTCCACGA are within error of each other in switch fluorescence ratio: 1.05 ± 0.11 for the first, 1.3 ± 0.35 for the second.

TTTTCCAGTT and TTTTCCGCCC are within error of each other in switch fluorescence ratio: 0.998 ± 0.029 for the first, 3.08 ± 2.9 for the second.

TTTTCCGCTT and TTTTCGAAAA are within error of each other in switch fluorescence ratio: 1.55 ± 0.69 for the first, 1.03 ± 0.075 for the second.

TTTTCGATCT and TTTTCGCCGA are within error of each other in switch fluorescence ratio: 1 ± 0.013 for the first, 1.03 ± 0.057 for the second.

TTTTCGGCCC and TTTTCGTGCA are within error of each other in switch fluorescence ratio: 1.01 ± 0.026 for the first, 1.03 ± 0.046 for the second.

TTTTCTACAG and TTTTCTCACG are within error of each other in switch fluorescence ratio: 1 ± 0.022 for the first, 1.12 ± 0.11 for the second.

TTTTCTGTCC and TTTTCTGTCG are within error of each other in switch fluorescence ratio: 1.03 ± 0.012 for the first, 1.06 ± 0.063 for the second.

TTTTCTGTTT and TTTTCTTAGA are within error of each other in switch fluorescence ratio: 0.996 ± 0.047 for the first, 0.977 ± 0.029 for the second.

TTTTCTTAGT and TTTTCTTATG are within error of each other in switch fluorescence ratio: 0.974 ± 0.021 for the first, 0.96 ± 0.013 for the second.

TTTTCTTGGG and TTTTCTTTT are within error of each other in switch fluorescence ratio: 1.03 ± 0.071 for the first, 1.02 ± 0.024 for the second.

TTTTCTTTTC and TTTTCTTTTG are within error of each other in switch fluorescence ratio: 1.09 ± 0.084 for the first, 1 ± 0.024 for the second.

Going from TTTTGAAAAG to TTTTGAAATG, the switch fluorescence ratio falls from 1.01 ± 0.019 to 0.965 ± 0.017.

TTTTGAACCA and TTTTGAAGGG are within error of each other in switch fluorescence ratio: 1.05 ± 0.057 for the first, 1 ± 0.021 for the second.

Sequence TTTTGACCGT has a switch fluorescence ratio of 0.973 ± 0.037.

From the supplement of paper PMC10126150
